Results published in patent US20210316003A1 (Immunomedics, Inc., priority 2020, published 2021).
“Also recorded” adds a separate entry of the source.

Columns and labels:
Format in all cases: in vivo, human
[1] = test system: patients with diverse metastatic cancers; test: Phase I trial and phase II extension in diverse epithelial cancers: best response and time to progression
From the text: The present Example reports the initial Phase I trial of 25 patients (pts) who had failed multiple prior therapies (some including topoisomcrasc-I/II inhibiting drugs), and the ongoing Phase II extension now reporting on 69 pts, including in colorectal (CRC), small-cell and non-small cell lung (SCLC, NSCLC, respectively), triple-negative breast (TNBC), pancreatic (PDC), esophageal, gastric, prostate, ovarian, renal, urinary bladder, head/neck and hepatocellular cancers. Patients were refractory/relapsed after standard treatment regimens for metastatic cancer. […]
A total of 69 patients (including 25 patients in Phase I) with diverse metastatic cancers having a median of 3 prior therapies were reported. Eight patients had clinical progression and withdrew before CT assessment. Thirteen CT-assessable pancreatic cancer patients were separately reported. The median TTP (time to progression) in PDC patients was 11.9 wks (range 2 to 21.4 wks) compared to median 8 wks TTP for the preceding last therapy.
A total of 48 patients with diverse cancers had at least 1 CT-assessment from which Best Response and Time to Progression (TTP) were determined. […] For SCLC (small cell lung cancer), of 4 assessable patients there were 2 PR, 0 SD and 2 PD for a total response of 2/4 (50%). For CRC (colorectal cancer), of 18 assessable patients there were 1 PR, 11 SD and 6 PD for a total response of 12/18 (67%). For esophageal cancer, of 4 assessable patients there were 1 PR, 2 SD and 1 PD for a total response of 3/4 (75%). For NSCLC (non-small cell lung cancer), of 5 assessable patients there were 1 PR, 3 SD and 1 PD for a total response of 4/5 (80%). Over all patients treated, of 48 assessable patients there were 7 PR, 27 SD and 14 PD for a total response of 34/48 (71%).

[2] = test system: patients with diverse metastatic cancers; test: Phase I trial and phase II extension in diverse epithelial cancers: related adverse events (CTCAE v 4.0)
[3] = test system: patients with metastatic TNBC; test: Phase I/II trial (NCT01631552), metastatic TNBC: adverse events; settings: N = 108
From the text: Patients with relapsed/refractory TNBC who had previously failed at at least one prior line of therapy were enrolled in a single-arm, multicenter trial (Bardia et al., 2019, N Engl J Med 380:741-51). The present study reports on 108 patients who had failed at least two prior lines of therapy (median three prior therapies) (Bardia et al., 2019, N Engl J Med 380:741-51). […] For severe treatment-related adverse events, a 25% dose reduction was allowed after the first occurrence, 50% after the second and discontinuation after the third. Of the 108 patients, 107 were female and 1 was male, with a median age of 55. Prior therapies included treatment with taxanes (98%), anthracyclines (86%), platinum agents (69%), gemcitabine (55%), eribulin (45%) and checkpoint inhibitors (17%). Tumor staging was performed by computed tomography (CT) and MRI at baseline, followed up at 8 week intervals from the start of treatment until disease progression.

[4] = test system: patients with mSCLC; test: Antibody responses to sacituzumab govitecan, the IgG antibody and SN-38 in serum (ELISA), mSCLC; settings: treatment up to 22 months, up to 63 doses
Experimental: Positivity required at least 10% of the tumor cells to be stained, with an intensity scored as 1+(weak), 2+(moderate), and 3+(strong). […] Assay sensitivity is 50 ng/mL for the ADC and the IgG, and 170 ng/mL for anti-SN-38 antibody.

[5] = 48 assessable pts (excluding PDC)
[6] = 48 assessable pts (excluding PDC), listed as hRS7-SN-38
[7] = CRC, person, after 10 months of treatment
[8] = esophageal cancer, 4 assessable patients

Substance: sacituzumab govitecan
- Partial response (PR), % of patients [1, 5]: 15%
- Stable disease (SD), % of patients [1, 5]: 56%
- Stable disease (SD), number of patients [1, 5]: 27
- Total response [PR+SD], % of patients [1, 5]: 79%
- Total response [PR+SD], number of patients [1, 5]: 38
- Total response [PR+SD], % of patients [1, 6]: 71%
- Total response [PR+SD], number of patients [1, 6]: 34/48
- Total response [PR+SD] ([1]; CRC, 12/18): 67%
- PD, number of patients ([1]; CRC, 18 assessable patients): 6
- PR, number of patients ([1]; CRC, 18 assessable patients): 1
- CEA after treatment (decrease from 781), single patient [1, 7]: 26.5 ng/mF
- Maximum reduction in target lesions, single patient [1, 7]: 65%
- Reduction in target lesions on first CT assessment (PR), single patient ([1]; CRC, person, starting dose 8 mg/kg): 37%
- Total response [PR+SD] ([1]; NSCLC, 4/5): 80%
- PD, number of patients ([1]; NSCLC, 5 assessable patients): 1
- PR, number of patients ([1]; NSCLC, 5 assessable patients): 1
- Primary target lesion size at first CT (from 5.6 cm), single patient ([1]; NSCLC, person, after 6th dose): 3.2 cm
- Total response [PR+SD] ([1]; SCLC, 2/4): 50%
- PD, number of patients ([1]; SCLC, 4 assessable patients): 2
- PR, number of patients ([1]; SCLC, 4 assessable patients): 2
- Reduction in target lesions, single patient ([1]; SCLC, person, 12 mg/kg reduced to 6.8 mg/kg, after two months): 38%
- Total response [PR+SD] ([1]; TNBC, 6/8): 75%
- PD, number of patients ([1]; TNBC, 8 assessable patients): 2
- PR, number of patients ([1]; TNBC, 8 assessable patients): 2
- PD, number of patients ([1]; all, 48 assessable patients): 14
- PR, number of patients ([1]; all, 48 assessable patients): 7
- Total response [PR+SD] ([1]; esophageal cancer, 3/4): 75%
- PD, number of patients [1, 8]: 1
- PR, number of patients [1, 8]: 1
- Diarrhea ≥G3 ([2]; 49 pts reporting related AE): 9%
- Fatigue ≥G3 ([2]; 49 pts reporting related AE): 9%
- Nausea ≥G3 ([2]; 49 pts reporting related AE): 0%
- Neutropenia ≥G3 ([2]; 49 pts reporting related AE): 28%
- Vomiting ≥G3 ([2]; 49 pts reporting related AE): 2%
- Abdominal pain, Grade 3, patients ([2]; related AE, N = 47): 0
- Abdominal pain, Grade 4, patients ([2]; related AE, N = 47): 0
- Abdominal pain, TOTAL ([2]; related AE, N = 47): 11%
- Alopecia, TOTAL ([2]; related AE, N = 47): 40%
- Anemia, Grade 3, % ([2]; related AE, N = 47): (4%)
- Anemia, Grade 3, patients ([2]; related AE, N = 47): 2
- Anemia, Grade 4, patients ([2]; related AE, N = 47): 0
- Anemia, TOTAL ([2]; related AE, N = 47): 13%
- Deep vein thrombosis, Grade 3, % ([2]; related AE, N = 47): (2%)
- Deep vein thrombosis, Grade 3, patients ([2]; related AE, N = 47): 1
- Deep vein thrombosis, Grade 4, patients ([2]; related AE, N = 47): 0
- Deep vein thrombosis, TOTAL ([2]; related AE, N = 47): 2%
- Diarrhea, Grade 3, % ([2]; related AE, N = 47): (9%)
- Diarrhea, Grade 3, patients ([2]; related AE, N = 47): 4
- Diarrhea, Grade 4, patients ([2]; related AE, N = 47): 0
- Diarrhea, TOTAL ([2]; related AE, N = 47): 47%
- Dysgeusia, Grade 3, patients ([2]; related AE, N = 47): 0
- Dysgeusia, Grade 4, patients ([2]; related AE, N = 47): 0
- Dysgeusia, TOTAL ([2]; related AE, N = 47): 15%
- Fatigue, Grade 3, % ([2]; related AE, N = 47): (9%)
- Fatigue, Grade 3, patients ([2]; related AE, N = 47): 4
- Fatigue, Grade 4, patients ([2]; related AE, N = 47): 0
- Fatigue, TOTAL ([2]; related AE, N = 47): 55%
- Febrile Neutropenia, Grade 3, % ([2]; related AE, N = 47): (2%)
- Febrile Neutropenia, Grade 3, patients ([2]; related AE, N = 47): 1
- Febrile Neutropenia, Grade 4, % ([2]; related AE, N = 47): 4%
- Febrile Neutropenia, Grade 4, patients ([2]; related AE, N = 47): 2
- Febrile Neutropenia, TOTAL ([2]; related AE, N = 47): 6%
- Hypokalemia, Grade 3, % ([2]; related AE, N = 47): (2%)
- Hypokalemia, Grade 3, patients ([2]; related AE, N = 47): 1
- Hypokalemia, Grade 4, patients ([2]; related AE, N = 47): 0
- Hypokalemia, TOTAL ([2]; related AE, N = 47): 11%
- Nausea, Grade 3, patients ([2]; related AE, N = 47): 0
- Nausea, Grade 4, patients ([2]; related AE, N = 47): 0
- Nausea, TOTAL ([2]; related AE, N = 47): 53%
- Neutropenia, Grade 3, % ([2]; related AE, N = 47): (24%)
- Neutropenia, Grade 3, patients ([2]; related AE, N = 47): 11
- Neutropenia, Grade 4, % ([2]; related AE, N = 47): 4%
- Neutropenia, Grade 4, patients ([2]; related AE, N = 47): 2
- Neutropenia, TOTAL ([2]; related AE, N = 47): 43%
- Pyrexia, Grade 3, patients ([2]; related AE, N = 47): 0
- Pyrexia, Grade 4, patients ([2]; related AE, N = 47): 0
- Pyrexia, TOTAL ([2]; related AE, N = 47): 13%
- Vomiting, Grade 3, % ([2]; related AE, N = 47): (2%)
- Vomiting, Grade 3, patients ([2]; related AE, N = 47): 1
- Vomiting, Grade 4, patients ([2]; related AE, N = 47): 0
- Vomiting, TOTAL ([2]; related AE, N = 47): 32%
- WBC Decrease, Grade 3, % ([2]; related AE, N = 47): (2%)
- WBC Decrease, Grade 3, patients ([2]; related AE, N = 47): 1
- WBC Decrease, Grade 4, patients ([2]; related AE, N = 47): 0
- WBC Decrease, TOTAL ([2]; related AE, N = 47): 6%
- Anemia, % of patients [3]: 50%
- Anemia, grade 3 [3]: 11%
- Decreased white blood cell count, grade 4 [3]: 3%
- Diarrhea, % of patients [3]: 62%
- Diarrhea, grade 3 [3]: 8%
- Fatigue, % of patients [3]: 55%
- Fatigue, grade 3 [3]: 8%
- Hyperglycemia, grade 4 [3]: 1%
- Nausea, % of patients [3]: 67%
- Nausea, grade 3 [3]: 6%
- Neutropenia, % of patients [3]: 64%
- Neutropenia, grade 3 [3]: 26%
- Neutropenia, grade 4 [3]: 16%
- Vomiting, % of patients [3]: 49%
- Vomiting, grade 3 [3]: 6%
- Immunogenicity: antibodies to sacituzumab govitecan, the hRS7 antibody, or SN-38 [4]: not immunogenic; also recorded: No neutralizing antibodies
